Laboratory results: article PMC9171633 (Proceedings of the National Academy of Sciences of the …, 2022)

Molecular target: KRas WT G domain (UniProt P01116-1 1-166)
Experiment: pull-down

B1: GST-RBD (domain or fragment)
chain: GLTSKESLFVRINAAHGFSLIQVDNTKVTMKEILLKAVKRRKGSQKVSGPQYRLEKQSEPNVAVDLDSTLESQSAWEFCLVRENSSRAD
binding result: binds
